1 sequence from article PMC4634408 can be followed below.

This data set addresses thrombin (human alpha-thrombin as purchased) (Homo sapiens) (UniProt P00734+P00734). Nature of the data set: electrochemical impedance spectroscopy. The following applies: 5'-HS-C6 thiol spacer; EIS with 2.5 mM [Fe(CN)6]3-/4- in phosphate buffer (PB) pH 7.0 with 0.1 M K2SO4; pH 6.6-7.8 and 15-40 C also tested (best pH 7.0, 35 C); standard incubation ….

“TTTGGTTGGTGTGGTTGG [ThA thrombin aptamer (15-mer with dT3 spacer)]”: the binding signal is -28 % dRct/Rct0.
